Measured values reported in article PMC9376891.

Target: Rae1(31-368);Nup98(157-213) GLEBS (human;human, UniProt P78406;P52948 31-368;157-213, |)
Assay: EMSA
Settings: protein: recombinant;recombinant; tags: untagged;N-terminal His tag removed by TEV; copies: 1;1; label: 5' FAM; single strand

Rae1(31-368);Nup98(157-213) GLEBS, sequence (P78406 31-368, chain 1 of 2): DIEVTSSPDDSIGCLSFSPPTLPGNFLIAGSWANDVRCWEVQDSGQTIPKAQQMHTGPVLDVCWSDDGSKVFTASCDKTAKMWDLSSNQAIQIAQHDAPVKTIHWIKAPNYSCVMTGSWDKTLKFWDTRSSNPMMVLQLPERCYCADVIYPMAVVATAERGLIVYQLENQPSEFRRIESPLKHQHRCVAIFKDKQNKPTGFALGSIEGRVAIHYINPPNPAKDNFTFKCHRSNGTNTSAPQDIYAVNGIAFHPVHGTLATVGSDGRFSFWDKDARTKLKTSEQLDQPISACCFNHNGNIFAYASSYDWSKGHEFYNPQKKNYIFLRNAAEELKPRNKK
Rae1(31-368);Nup98(157-213) GLEBS, sequence (P52948 157-213, chain 2 of 2): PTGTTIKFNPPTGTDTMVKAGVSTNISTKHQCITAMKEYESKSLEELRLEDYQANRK

UUUUUUUUUU (ssRNA) [10-mer poly(U) ssRNA]: binds.
